According to article PMC11375530, “The 8‐oxoguanine DNA glycosylase‐synaptotagmin 7 pathway increases extracellular vesicle release and promotes tumour metastasis during oxidative stress”:

Target: OGG1 (8-oxoguanine DNA glycosylase) (UniProt O15527 1-345)
Assay: EMSA; EMSA: DNA-binding buffer (composition not given), 10 min on ice then 10 min at 37 C, 7% native PAGE in 1x TBE; pull-down: 4 C, 12 h, 1 mM PMSF, PBS washes
Conditions: protein: commercial; label: 5'-FAM on strand 2; blunt

Chain of OGG1 (8-oxoguanine DNA glycosylase) (O15527 whole entry): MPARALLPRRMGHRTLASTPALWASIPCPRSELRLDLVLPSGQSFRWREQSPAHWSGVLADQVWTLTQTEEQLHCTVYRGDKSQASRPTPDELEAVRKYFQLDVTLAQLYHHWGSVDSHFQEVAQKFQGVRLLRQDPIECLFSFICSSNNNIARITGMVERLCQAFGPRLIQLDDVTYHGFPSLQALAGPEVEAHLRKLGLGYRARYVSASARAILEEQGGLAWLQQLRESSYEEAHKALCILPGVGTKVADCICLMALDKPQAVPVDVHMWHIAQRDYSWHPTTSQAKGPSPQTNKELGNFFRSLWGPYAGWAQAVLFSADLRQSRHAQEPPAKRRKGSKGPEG

B1: 8-oxoG-SYT7 (FAM) (dsDNA)
DNA 1: CGGGCGGGCGGGAGGGCTGGCGGGCGGCCCCC
DNA 2: GGGGGCCGCCCGCCAGCCCTCCCGCCCGCCCG
modifications: 8-oxoG at position 12 of strand 1 (printed ...CGGoGAGGG...)
B1: binds.
